From patent publication US20210340207A1 (Merck Sharp & Dohme, published 2021) come the findings set out here.

Experiment [1] addresses T1, human IL-2Rαβγc (on Kit225-STAT5 reporter cells, NK-92 cells, primary Treg cells) (human, UniProt P01589 22-272; P14784 27-551; P31785 23-369).
T1 sequence (looked up) 1: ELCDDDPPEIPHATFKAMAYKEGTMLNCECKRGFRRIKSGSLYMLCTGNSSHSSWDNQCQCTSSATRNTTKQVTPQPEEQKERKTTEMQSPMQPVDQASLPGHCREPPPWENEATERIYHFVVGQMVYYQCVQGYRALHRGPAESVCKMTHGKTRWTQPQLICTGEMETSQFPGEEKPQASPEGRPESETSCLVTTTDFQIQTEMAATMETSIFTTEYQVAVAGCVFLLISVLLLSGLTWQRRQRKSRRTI
T1 sequence (looked up) 2: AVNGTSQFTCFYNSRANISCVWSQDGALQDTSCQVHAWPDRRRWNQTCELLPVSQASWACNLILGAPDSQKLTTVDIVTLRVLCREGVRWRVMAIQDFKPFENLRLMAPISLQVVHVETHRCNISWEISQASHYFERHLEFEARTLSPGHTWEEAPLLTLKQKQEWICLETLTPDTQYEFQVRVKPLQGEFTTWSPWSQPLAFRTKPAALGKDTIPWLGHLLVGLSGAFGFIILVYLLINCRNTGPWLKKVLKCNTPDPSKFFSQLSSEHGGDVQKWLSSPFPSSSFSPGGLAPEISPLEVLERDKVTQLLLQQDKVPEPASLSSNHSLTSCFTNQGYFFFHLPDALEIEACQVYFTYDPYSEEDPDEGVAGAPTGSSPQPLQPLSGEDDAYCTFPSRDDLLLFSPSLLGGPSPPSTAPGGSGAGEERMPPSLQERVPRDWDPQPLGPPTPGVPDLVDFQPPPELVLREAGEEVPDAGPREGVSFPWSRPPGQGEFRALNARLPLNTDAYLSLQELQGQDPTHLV
T1 sequence (looked up) 3: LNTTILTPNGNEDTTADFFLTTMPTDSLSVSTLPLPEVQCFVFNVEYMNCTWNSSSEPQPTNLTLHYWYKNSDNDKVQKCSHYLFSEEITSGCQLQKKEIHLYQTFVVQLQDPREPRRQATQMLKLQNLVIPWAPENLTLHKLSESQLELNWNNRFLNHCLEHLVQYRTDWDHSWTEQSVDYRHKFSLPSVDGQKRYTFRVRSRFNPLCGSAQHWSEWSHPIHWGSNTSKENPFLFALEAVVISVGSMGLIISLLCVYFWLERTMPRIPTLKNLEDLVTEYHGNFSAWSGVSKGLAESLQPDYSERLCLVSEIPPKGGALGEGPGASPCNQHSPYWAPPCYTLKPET
Description: cell-based or functional assay.

For experiment [2], the target named is T2, human IL-2Rβγc (on DERL-7 cells, U2OS IL2RB/IL2RG cells, CD25 knockout Kit225-STAT5 cells, primary CD8+ CTLs) (human, UniProt P14784 27-551; P31785 23-369).
T2 sequence (looked up) 1: T1 sequence (looked up) 2
T2 sequence (looked up) 2: T1 sequence (looked up) 3
The experiment is described as follows: cell-based or functional assay.

Experiment [3] concerns the target T1, human IL-2Rαβγc (on Kit225-STAT5 …). The experiment is described as follows: cell-based or functional assay. This is another data set of the same source.
For experiment [4], the target named is T2, human IL-2Rβγc (on DERL-7 cells, U2OS …). Description: cell-based or functional assay. This is another data set of the same source.
The target in experiment [5] is T3, Cynomolgus/Rhesus IL-2Rβ, His tag (Table 10) (cynomolgus monkey / rhesus monkey, UniProt Q38J85 27-240).
T3 sequence: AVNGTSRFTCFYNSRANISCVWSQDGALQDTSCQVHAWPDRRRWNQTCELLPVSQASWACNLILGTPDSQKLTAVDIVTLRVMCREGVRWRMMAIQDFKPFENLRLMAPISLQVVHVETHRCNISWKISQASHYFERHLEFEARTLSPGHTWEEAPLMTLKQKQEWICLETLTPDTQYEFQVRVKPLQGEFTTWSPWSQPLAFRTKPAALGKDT
The experiment is described as follows: SPR (Biacore T200), receptor captured on anti-histidine surface. The procedure: (§1) A Surface Plasmon Resonance (SPR) assay on a Biacore T200 (GE Healthcare) instrument was used to determine the monovalent affinities of pegylated aldesleukin variants against polyhistidine-tagged or Fc-tagged IL-2 Receptors. Biacore T200 Evaluation Software was used to fit each titration series to a 1:1 binding model or steady state affinity. The association (kₒₙ, M⁻¹ s⁻¹) and dissociation (koff, s⁻¹) rate constants were determined for each set of titrations and used to calculate the dissociation constant, KD=koff/kₒₙ, of each sample against each receptor. koff/kₒₙ values are not reported herein.
(§2) To measure the affinity of CON1 and aldesleukin for IL-2R subunits, receptors were captured on either an anti-histidine or anti-hu Fc antibody surface. […] CON1 has a six-fold lower affinity for Human and Cynomolgus/Rhesus IL-2-Rβ than aldesleukin.

Experiment [6] has as its target T4, Human IL-2Rβ, His tag (Table 10) (human, UniProt P14784 27-239, limits assumed).
T4 construct: not shown: polyhistidine tag
T4 sequence (looked up): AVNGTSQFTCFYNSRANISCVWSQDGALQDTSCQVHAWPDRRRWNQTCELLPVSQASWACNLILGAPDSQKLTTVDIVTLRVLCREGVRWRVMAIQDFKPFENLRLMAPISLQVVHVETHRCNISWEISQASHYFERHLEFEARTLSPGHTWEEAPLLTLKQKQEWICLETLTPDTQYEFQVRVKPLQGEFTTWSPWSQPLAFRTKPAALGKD
The experiment is described as above. The method, then: as §1, §2

The target in experiment [7] is T4, Human IL-2Rβ, His tag (Table 10). The experiment is described as follows: SPR (Biacore T200). The method, then:
as §1
For orientation: Surface plasmon resonance follows binding to a sensor surface in real time, without labels.

*1 amine or outer side, *2 acyl side, *3 side chain or, on linkers, in order; H or OH if unused. Side-chain parts run from the residue outwards. [ ]: non-standard residue; d: D form. pAMF = para-azidomethylphenylalanine, [N-]=[N+]=NCc1ccc(C[C@H](N[*:1])C(=O)[*:2])cc1

B1: Ald_S4pAMF(PEG1)/R37A/F41K (CON1) (ligand)
chain: PTS[pAMF]([DBCO‑triazole-mPEG 30 kDa])STKKTQLQLEHLLLDLQMILNGINNYKNPKLTAMLTKKFYMPKKATELKHLQCLEEELKPLEEVLNLAQSKNFHLRPRDLISNINVIVLELKGSETTFMCEYADETATIVEFLNRWITFSQSIISTLT
modifications: not fully specified (bridges)
notes: also called Des-A1_IL-2_S4pAMF(PEG1)/R37A/F41K/C124S
A word on the Kd: it is the constant that tells how readily two partners part at equilibrium. For B1, the “Kit225-STAT5 reporter, fold lower activity than aldesleukin” value in experiment [1] was determined as 5110 fold. Moreover, in experiment [2], the “CD25 knockout Kit225-STAT5 reporter, fold lower activity than aldesleukin” value was determined as 24 fold. For the same molecule, in experiment [3], the “pSTAT5 Treg Fold-change from wt, donor #1” value stood at 3620 fold; the “pSTAT5 Treg Fold-change from wt, donor #2” value was 2230 fold; the “pSTAT5 Treg cells EC50, donor #1” value worked out at 11.8 nM; the “pSTAT5 Treg cells EC50, donor #2” value came out at 7.29 nM. Besides, in experiment [4], the “pSTAT5 CTLs EC50, donor #1” value came out at 71.9 nM; the “pSTAT5 CTLs EC50, donor #2” value was 43 nM; the “pSTAT5 CTLs Fold-change from wt, donor #1” value was 25 fold; the “pSTAT5 CTLs Fold-change from wt, donor #2” value was found to be 45 fold. Moreover, in experiment [5], the “KD/KD (human)” value was determined as 1.2 ratio and the affinity, expressed as Kd, was 5.4 µM. In experiment [6], the “KD/KD (human)” value amounted to 1 ratio and the Kd was determined as 4.4 µM. Moreover, the “fold lower affinity than aldesleukin” value in experiment [7] worked out at 6 fold.
